Laboratory results taken from the supplement of paper PMC10065799, “High-throughput profiling of sequence recognition by tyrosine kinases and SH2 domains using bacterial peptide display” (eLife, 2023).

How the values were obtained:
Fes = Fes (UniProt P07332); assay: phosphorylation enrichment, bacterial display (enrichment ratio); higher = better substrate or ligand; peptides without Tyr show the background
Fyn = Fyn (UniProt P06241); assay: as above
Jak2 = Jak2 (UniProt O60674); assay: as above
EPHB1 = EPHB1 (UniProt P54762); assay: as above
AncSZ = assay: as above
EPHB2 = EPHB2 (UniProt P29323); assay: as above
EPHB2, sequence (P29323 whole entry, looked up): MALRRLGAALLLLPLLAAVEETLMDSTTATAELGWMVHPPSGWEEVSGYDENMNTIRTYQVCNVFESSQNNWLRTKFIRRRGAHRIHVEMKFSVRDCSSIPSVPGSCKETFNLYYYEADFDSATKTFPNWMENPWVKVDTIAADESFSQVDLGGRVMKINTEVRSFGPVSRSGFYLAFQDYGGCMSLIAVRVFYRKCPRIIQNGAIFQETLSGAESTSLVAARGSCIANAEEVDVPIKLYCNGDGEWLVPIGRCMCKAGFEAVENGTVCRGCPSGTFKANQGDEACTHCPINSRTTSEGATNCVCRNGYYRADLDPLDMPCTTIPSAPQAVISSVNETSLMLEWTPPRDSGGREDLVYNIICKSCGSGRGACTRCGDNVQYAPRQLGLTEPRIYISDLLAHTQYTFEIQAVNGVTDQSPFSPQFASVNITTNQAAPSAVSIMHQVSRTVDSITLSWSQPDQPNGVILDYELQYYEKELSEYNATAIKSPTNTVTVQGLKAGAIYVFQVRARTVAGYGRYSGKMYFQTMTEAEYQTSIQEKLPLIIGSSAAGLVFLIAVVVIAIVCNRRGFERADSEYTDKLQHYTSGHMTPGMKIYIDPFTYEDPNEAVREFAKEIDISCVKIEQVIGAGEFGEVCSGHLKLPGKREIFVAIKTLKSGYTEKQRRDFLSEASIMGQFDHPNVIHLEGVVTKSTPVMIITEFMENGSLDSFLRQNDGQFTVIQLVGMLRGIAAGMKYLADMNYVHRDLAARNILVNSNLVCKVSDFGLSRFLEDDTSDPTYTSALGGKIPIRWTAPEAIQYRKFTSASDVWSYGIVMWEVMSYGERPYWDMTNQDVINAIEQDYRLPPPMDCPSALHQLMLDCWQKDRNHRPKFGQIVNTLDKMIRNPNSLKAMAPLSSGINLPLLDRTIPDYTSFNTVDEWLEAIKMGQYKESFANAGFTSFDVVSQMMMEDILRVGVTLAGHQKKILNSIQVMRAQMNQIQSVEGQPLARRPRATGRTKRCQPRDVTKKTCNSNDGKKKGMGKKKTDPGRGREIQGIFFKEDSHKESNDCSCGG

MERTK = MERTK (UniProt Q12866); assay: as above
MERTK, sequence (Q12866 whole entry, looked up): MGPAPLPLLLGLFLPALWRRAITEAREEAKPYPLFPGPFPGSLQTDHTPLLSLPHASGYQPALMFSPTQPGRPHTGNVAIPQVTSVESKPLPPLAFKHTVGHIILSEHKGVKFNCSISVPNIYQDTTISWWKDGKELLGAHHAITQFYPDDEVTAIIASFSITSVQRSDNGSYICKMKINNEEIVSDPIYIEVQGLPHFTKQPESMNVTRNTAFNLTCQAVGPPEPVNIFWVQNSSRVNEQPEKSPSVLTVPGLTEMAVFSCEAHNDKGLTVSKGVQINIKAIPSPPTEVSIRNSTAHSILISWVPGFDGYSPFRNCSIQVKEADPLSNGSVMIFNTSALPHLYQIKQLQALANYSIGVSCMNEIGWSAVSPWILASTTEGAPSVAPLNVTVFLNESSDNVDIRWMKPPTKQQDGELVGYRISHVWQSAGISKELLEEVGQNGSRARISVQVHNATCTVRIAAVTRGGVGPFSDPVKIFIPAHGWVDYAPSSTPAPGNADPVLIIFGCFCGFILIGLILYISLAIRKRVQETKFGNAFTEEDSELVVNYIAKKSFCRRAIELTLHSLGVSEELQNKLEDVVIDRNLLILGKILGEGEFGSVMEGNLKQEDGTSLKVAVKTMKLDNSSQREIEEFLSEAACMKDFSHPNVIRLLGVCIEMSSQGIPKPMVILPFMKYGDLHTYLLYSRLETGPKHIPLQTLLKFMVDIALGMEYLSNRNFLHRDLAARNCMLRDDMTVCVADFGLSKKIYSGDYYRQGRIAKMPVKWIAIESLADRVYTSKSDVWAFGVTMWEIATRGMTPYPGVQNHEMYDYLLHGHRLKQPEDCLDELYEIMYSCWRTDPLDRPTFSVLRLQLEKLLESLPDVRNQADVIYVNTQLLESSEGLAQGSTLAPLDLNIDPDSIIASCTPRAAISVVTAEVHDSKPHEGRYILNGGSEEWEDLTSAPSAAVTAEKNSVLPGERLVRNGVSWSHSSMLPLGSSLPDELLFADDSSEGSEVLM

c-Src = assay: as above
Fer (mouse) = assay: as above
FGFR1 = FGFR1 (UniProt P11362); assay: as above
FGFR1, sequence (P11362 whole entry, looked up): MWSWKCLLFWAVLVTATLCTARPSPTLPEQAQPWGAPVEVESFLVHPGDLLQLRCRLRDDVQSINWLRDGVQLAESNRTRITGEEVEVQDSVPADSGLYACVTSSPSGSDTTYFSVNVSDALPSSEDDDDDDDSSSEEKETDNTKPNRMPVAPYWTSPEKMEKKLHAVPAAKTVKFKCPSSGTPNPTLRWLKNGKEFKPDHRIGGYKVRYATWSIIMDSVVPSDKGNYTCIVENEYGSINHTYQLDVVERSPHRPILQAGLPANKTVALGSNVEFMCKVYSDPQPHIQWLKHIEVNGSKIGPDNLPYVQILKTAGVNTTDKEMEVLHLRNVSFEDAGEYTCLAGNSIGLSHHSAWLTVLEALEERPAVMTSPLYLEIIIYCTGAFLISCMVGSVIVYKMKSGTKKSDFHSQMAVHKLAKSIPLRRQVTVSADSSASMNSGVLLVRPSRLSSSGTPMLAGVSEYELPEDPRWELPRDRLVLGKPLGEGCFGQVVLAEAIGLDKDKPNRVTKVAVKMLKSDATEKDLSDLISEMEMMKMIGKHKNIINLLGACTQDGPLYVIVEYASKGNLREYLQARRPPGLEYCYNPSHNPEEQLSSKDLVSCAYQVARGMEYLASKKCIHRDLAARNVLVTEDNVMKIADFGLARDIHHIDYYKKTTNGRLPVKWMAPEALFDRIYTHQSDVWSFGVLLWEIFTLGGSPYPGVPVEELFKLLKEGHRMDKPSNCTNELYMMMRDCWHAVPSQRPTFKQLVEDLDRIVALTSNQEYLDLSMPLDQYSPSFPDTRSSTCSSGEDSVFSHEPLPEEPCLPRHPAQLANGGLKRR

FGFR3 = FGFR3 (UniProt P22607); assay: as above
FGFR3, sequence (P22607 whole entry, looked up): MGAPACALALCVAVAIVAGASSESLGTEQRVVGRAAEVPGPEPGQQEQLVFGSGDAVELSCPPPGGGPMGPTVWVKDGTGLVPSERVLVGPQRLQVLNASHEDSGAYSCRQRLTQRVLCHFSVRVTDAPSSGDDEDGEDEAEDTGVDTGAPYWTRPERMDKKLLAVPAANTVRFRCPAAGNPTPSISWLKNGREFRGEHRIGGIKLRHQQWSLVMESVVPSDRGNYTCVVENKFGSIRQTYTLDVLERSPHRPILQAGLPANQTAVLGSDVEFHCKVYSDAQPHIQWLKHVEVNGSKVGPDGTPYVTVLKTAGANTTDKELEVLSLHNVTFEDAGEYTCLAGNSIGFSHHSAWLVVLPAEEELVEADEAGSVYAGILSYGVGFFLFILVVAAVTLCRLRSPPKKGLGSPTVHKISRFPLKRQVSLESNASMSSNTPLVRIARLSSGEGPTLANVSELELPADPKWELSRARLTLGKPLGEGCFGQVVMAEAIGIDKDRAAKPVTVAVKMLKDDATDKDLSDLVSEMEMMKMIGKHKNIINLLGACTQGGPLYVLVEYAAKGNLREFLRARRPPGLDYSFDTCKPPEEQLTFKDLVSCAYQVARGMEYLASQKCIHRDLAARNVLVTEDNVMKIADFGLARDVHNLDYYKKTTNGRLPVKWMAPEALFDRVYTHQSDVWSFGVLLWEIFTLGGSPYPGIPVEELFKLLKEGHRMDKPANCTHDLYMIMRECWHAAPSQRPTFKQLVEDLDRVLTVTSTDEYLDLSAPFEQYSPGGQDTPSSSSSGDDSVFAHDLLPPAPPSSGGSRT

Hck = Hck (UniProt P08631); assay: as above
Hck, sequence (P08631 whole entry, looked up): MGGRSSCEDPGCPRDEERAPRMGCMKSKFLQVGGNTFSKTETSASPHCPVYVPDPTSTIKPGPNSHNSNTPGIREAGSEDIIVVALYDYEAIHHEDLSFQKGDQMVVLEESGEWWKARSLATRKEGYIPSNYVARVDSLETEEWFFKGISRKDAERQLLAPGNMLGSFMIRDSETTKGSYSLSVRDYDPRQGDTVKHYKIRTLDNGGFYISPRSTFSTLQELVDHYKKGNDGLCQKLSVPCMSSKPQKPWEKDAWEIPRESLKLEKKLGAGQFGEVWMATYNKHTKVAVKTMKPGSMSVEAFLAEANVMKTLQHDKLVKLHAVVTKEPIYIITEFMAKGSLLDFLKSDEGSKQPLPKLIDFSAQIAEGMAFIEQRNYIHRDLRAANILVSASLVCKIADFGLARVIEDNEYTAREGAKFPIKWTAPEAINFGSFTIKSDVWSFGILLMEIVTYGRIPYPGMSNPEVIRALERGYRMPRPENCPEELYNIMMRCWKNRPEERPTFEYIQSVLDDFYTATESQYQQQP

c-Abl (mouse) = assay: as above
Grb2 SH2 = Grb2 SH2 (UniProt P62993); assay: SH2 binding enrichment of the phosphorylated peptide, bacterial display (enrichment ratio); higher = better substrate or ligand; peptides without Tyr show the background
Grb2 SH2, sequence (P62993 whole entry, looked up): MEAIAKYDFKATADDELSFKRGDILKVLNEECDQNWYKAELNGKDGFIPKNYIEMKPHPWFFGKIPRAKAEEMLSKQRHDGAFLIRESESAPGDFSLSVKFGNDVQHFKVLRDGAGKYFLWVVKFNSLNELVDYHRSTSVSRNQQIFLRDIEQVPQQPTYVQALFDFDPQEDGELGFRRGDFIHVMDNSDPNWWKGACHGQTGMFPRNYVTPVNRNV

c-Src SH2 = assay: as above
SHP2-C SH2 = assay: as above
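Wherever SH2 binding enrichment of the phosphorylated peptide, bacterial display is given: peptide library displayed on the E. coli surface as eCPX fusions, selected cells deep-sequenced, score is each peptide's frequency after selection divided by its frequency in the input.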
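Wherever phosphorylation enrichment, bacterial display is given: 11-residue human phosphosite peptides and single-mutation variants displayed on the E. coli surface, counted by deep sequencing, each peptide's frequency after selection divided by its frequency in the unselected input library; frequency after pTyr selection over input frequency; kinase dosed for 20-30% of maximal phosphorylation in three min.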

Fyn, sequence (P06241 whole entry, looked up): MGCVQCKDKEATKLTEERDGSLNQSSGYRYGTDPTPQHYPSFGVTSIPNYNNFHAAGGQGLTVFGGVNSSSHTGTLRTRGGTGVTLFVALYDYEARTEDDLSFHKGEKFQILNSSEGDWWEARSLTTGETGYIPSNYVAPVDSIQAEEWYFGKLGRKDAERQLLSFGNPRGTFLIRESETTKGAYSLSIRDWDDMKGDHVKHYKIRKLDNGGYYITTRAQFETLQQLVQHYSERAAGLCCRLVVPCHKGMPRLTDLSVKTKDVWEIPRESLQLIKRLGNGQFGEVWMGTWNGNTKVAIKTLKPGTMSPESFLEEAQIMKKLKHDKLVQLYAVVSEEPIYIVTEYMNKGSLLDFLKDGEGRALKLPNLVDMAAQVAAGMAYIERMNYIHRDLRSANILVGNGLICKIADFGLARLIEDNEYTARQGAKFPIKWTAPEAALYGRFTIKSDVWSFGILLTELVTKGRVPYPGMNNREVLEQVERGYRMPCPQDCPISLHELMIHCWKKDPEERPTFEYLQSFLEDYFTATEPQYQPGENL

| Sequence | phosphorylation enrichment (Fes) | phosphorylation enrichment (Fyn) | phosphorylation enrichment (Jak2) | phosphorylation enrichment (EPHB1) | phosphorylation enrichment (AncSZ) | phosphorylation enrichment (EPHB2) | phosphorylation enrichment (MERTK) | phosphorylation enrichment (c-Src) | phosphorylation enrichment (Fer (mouse)) | phosphorylation enrichment (FGFR1) | phosphorylation enrichment (FGFR3) | phosphorylation enrichment (Hck) | phosphorylation enrichment (c-Abl (mouse)) | SH2 binding enrichment (Grb2 SH2) | SH2 binding enrichment (c-Src SH2) | SH2 binding enrichment (SHP2-C SH2) |
| --- | --- | --- | --- | --- | --- | --- | --- | --- | --- | --- | --- | --- | --- | --- | --- | --- |
| EYLHKYKGFKI [SYNE1_Y6953_Q6951H] | 1.01 | 0.461 | 1.01 | 0.509 | 0.903 | 0.509 | 0.453 | 0.501 | 0.405 | 0.403 | 0.57 | 0.437 | 0.996 | 0.861 | 0.527 | 0.63 |
| GRRGQYVMLSE [TTC7A_Y396] | 0.586 | 0.546 | 0.573 | 0.431 | 0.692 | 0.494 | 0.673 | 0.549 | 0.45 | 0.506 | 0.532 | 0.512 | 0.565 | 0.84 | 2.01 | 0.673 |
| GHEFIYVDPMQ [PDGFRA_Y574_YF] | 0.986 | 2.2 | 0.818 | 5.23 | 1.85 | 6.63 | 2.36 | 2.6 | 1.91 | 10.8 | 7.52 | 2.96 | 6.67 | 0.821 | 0.563 | 0.661 |
| VIKDKYPQARY [APTX_Y209_K211Q] | 0.569 | 0.363 | 0.554 | 0.401 | 0.498 | 0.394 | 0.377 | 0.43 | 0.42 | 0.358 | 0.453 | 0.373 | 0.523 | 0.888 | 0.532 | 0.66 |
| GSTLSYGRDGR [MATR3_Y158_P154S] | 0.516 | 0.353 | 0.452 | 0.339 | 0.545 | 0.343 | 0.374 | 0.382 | 0.374 | 0.389 | 0.466 | 0.376 | 0.392 | 0.793 | 0.465 | 0.642 |
| QMVRMYASSYM [AVPR2_Y124_G122R] | 1.28 | 0.557 | 0.764 | 0.842 | 1.31 | 0.787 | 0.659 | 0.464 | 0.717 | 0.622 | 0.988 | 0.621 | 0.675 | 0.899 | 0.455 | 0.64 |
| FCRHNYGVVES [HLA-DRB1_Y112_YF] | 0.843 | 0.503 | 0.632 | 1.32 | 0.569 | 2.62 | 0.44 | 0.446 | 0.555 | 0.587 | 0.661 | 0.526 | 0.545 | 1.19 | 1.86 | 1.05 |
| IVEELYAIPPD [PEAK1_Y797_S792I] | 1.26 | 3.48 | 1.27 | 4.29 | 3.84 | 13.3 | 8.66 | 3.23 | 6.14 | 6.62 | 6.02 | 4.27 | 10 | 0.88 | 0.564 | 0.68 |
| ILGRYYERGSI [PAX5_Y73_T75R] | 0.726 | 0.498 | 0.563 | 0.493 | 0.449 | 0.531 | 0.408 | 0.401 | 0.474 | 0.466 | 0.552 | 0.495 | 0.519 | 0.889 | 0.84 | 0.671 |
| ENRKFYMDLKE [PURA_Y156_YF] | 0.989 | 0.408 | 0.963 | 0.492 | 0.917 | 0.691 | 0.432 | 0.375 | 0.487 | 0.503 | 0.738 | 0.469 | 0.557 | 0.841 | 0.506 | 0.558 |
| KTGDFYDLFGG [PTPN11_Y63_N58K_YF] | 0.879 | 3.14 | 0.781 | 0.577 | 0.956 | 0.463 | 2.74 | 2.65 | 0.716 | 0.523 | 0.6 | 2.04 | 0.627 | 0.93 | 0.628 | 0.781 |
| ALIKAYVKAVA [SMN1_Y43_D44V] | 0.995 | 0.462 | 1.12 | 0.65 | 0.966 | 0.534 | 0.481 | 0.557 | 0.445 | 0.623 | 0.639 | 0.464 | 0.68 | 0.756 | 0.412 | 0.676 |
| QNTGYYYDLYG [PTPN11_Y62_D61Y] | 1.96 | 7.01 | 8.69 | 18.4 | 1.9 | 17.9 | 15.6 | 7.11 | 4.32 | 21.1 | 17.8 | 9.49 | 1.25 | 1.54 | 6.14 | 2.18 |
| AVISVYDLVVV [PSEN1_Y256_A260V] | 1.46 | 5.2 | 1.29 | 5.61 | 1.54 | 4.03 | 6.78 | 3.85 | 13.3 | 0.726 | 1.02 | 4.14 | 1 | 0.984 | 0.797 | 1.03 |
| KYVVVYFREID [IL17RB_Y447] | 1.66 | 0.486 | 1.51 | 0.578 | 1.61 | 0.545 | 0.471 | 0.626 | 0.591 | 0.513 | 0.867 | 0.499 | 1.01 | 1.62 | 1.37 | 2.88 |
| HNLDFYKKTTN [FGFR3_Y648_YF] | 3.91 | 0.916 | 5.47 | 1.76 | 3.51 | 2.13 | 1.95 | 2.23 | 2.46 | 1.28 | 1.68 | 1.15 | 3.49 | 1.02 | 0.5 | 0.602 |
| EGGFAYVPLKD [PRIM2_Y208_D204G] | 1.05 | 0.369 | 1.12 | 0.466 | 1.19 | 0.567 | 0.371 | 0.419 | 0.379 | 0.399 | 0.497 | 0.404 | 0.699 | 0.637 | 0.468 | 0.436 |

| Sequence | phosphorylation enrichment (Fes) | phosphorylation enrichment (Fyn) | phosphorylation enrichment (Jak2) | phosphorylation enrichment (EPHB1) | phosphorylation enrichment (AncSZ) | phosphorylation enrichment (EPHB2) | phosphorylation enrichment (MERTK) | phosphorylation enrichment (c-Src) | phosphorylation enrichment (Fer (mouse)) | phosphorylation enrichment (FGFR1) | phosphorylation enrichment (FGFR3) | phosphorylation enrichment (Hck) | phosphorylation enrichment (c-Abl (mouse)) | SH2 binding enrichment (Grb2 SH2) | SH2 binding enrichment (c-Src SH2) | SH2 binding enrichment (SHP2-C SH2) |
| --- | --- | --- | --- | --- | --- | --- | --- | --- | --- | --- | --- | --- | --- | --- | --- | --- |
| ACLSLYGGFVE [MVD_Y164_R161L] | 2.02 | 5.43 | 1.92 | 1.21 | 1.67 | 1.13 | 0.607 | 4.75 | 0.817 | 0.681 | 1.31 | 3.83 | 1.46 | 0.834 | 0.464 | 0.661 |
| ADVLDYIKALN [HPRT1_Y81_L78V] | 0.814 | 0.507 | 0.748 | 0.459 | 0.756 | 0.534 | 0.542 | 0.463 | 0.415 | 0.532 | 0.629 | 0.489 | 0.467 | 0.76 | 0.553 | 0.869 |
| VGEGPYLISDL [ABCC12_Y7] | 1.01 | 0.507 | 1.05 | 0.65 | 0.952 | 0.5 | 0.468 | 0.752 | 0.578 | 0.466 | 0.734 | 0.483 | 0.768 | 0.786 | 0.414 | 0.663 |
| KDAGDYKCKAK [LRIT3_Y326] | 0.618 | 0.386 | 0.579 | 0.408 | 0.542 | 0.312 | 0.332 | 0.384 | 0.312 | 0.448 | 0.517 | 0.55 | 0.654 | 1.4 | 0.83 | 0.767 |
| PSSNLYYRCLT [CNGA3_Y168_W171C] | 1.06 | 0.883 | 2.31 | 1.23 | 1.68 | 0.78 | 3.88 | 1.05 | 0.655 | 1.9 | 1.87 | 1.89 | 0.742 | 0.936 | 0.484 | 0.629 |
| IVKAYYVHARA [AIPL1_Y268_R270H] | 0.978 | 0.424 | 0.818 | 0.567 | 0.857 | 0.533 | 0.572 | 0.432 | 0.574 | 0.538 | 0.633 | 0.595 | 0.663 | 1.25 | 0.823 | 1.95 |
| RKQQLYTAMEE [CCDC39_Y593] | 0.963 | 0.529 | 0.836 | 0.707 | 0.933 | 0.534 | 2.02 | 0.583 | 0.672 | 0.431 | 0.757 | 0.855 | 0.677 | 1.29 | 3.25 | 0.576 |
| ESMLRYEVYGG [STOX1_Y607] | 1.42 | 0.666 | 1.3 | 0.758 | 1.29 | 0.685 | 0.506 | 0.905 | 0.523 | 0.528 | 0.702 | 0.712 | 0.744 | 0.819 | 0.929 | 0.554 |
| YHLLPYTVRAM [PARS2_Y93] | 0.913 | 3.04 | 6.87 | 2.32 | 1.28 | 1.47 | 9.72 | 3.84 | 0.595 | 16.5 | 13.9 | 8.34 | 24.6 | 1.15 | 5.37 | 1.81 |
| LRRFIYRPPDQ [OTOF_Y1231_R1236Q] | 0.606 | 0.479 | 0.502 | 0.409 | 0.675 | 0.606 | 0.516 | 0.318 | 0.445 | 0.443 | 0.397 | 0.493 | 0.333 | 0.595 | 0.359 | 0.391 |
| IVRSLYEDQED [VHL_Y185_L188Q] | 1.36 | 0.477 | 1.3 | 0.67 | 1.39 | 0.621 | 0.482 | 0.59 | 0.523 | 0.67 | 0.742 | 0.581 | 0.826 | 0.985 | 1.09 | 0.993 |
| YPLELYERVRM [PRKCG_Y312] | 1.25 | 0.518 | 1.25 | 2.02 | 1.19 | 1.18 | 0.432 | 0.699 | 3.71 | 0.481 | 0.622 | 1.65 | 0.632 | 1.02 | 1.11 | 0.83 |
| FFSSEYHFVGG [CTSC_Y345_YF] | 0.91 | 2 | 1.95 | 3.21 | 2.52 | 3.73 | 3.31 | 2.94 | 0.526 | 14.2 | 10.7 | 2.44 | 1.71 | 0.99 | 0.756 | 1.68 |
| FDNPVYQKTTE [LDLR_Y828] | 0.864 | 0.759 | 0.549 | 0.605 | 0.737 | 0.497 | 0.453 | 0.531 | 0.424 | 0.5 | 0.498 | 0.933 | 0.438 | 0.993 | 0.578 | 1.09 |
| SEKIVYGHVDD [ACO2_Y71_L74V] | 0.805 | 0.515 | 0.738 | 0.41 | 0.715 | 0.469 | 0.383 | 0.649 | 0.466 | 0.471 | 0.529 | 0.479 | 0.677 | 0.903 | 0.556 | 1.59 |
| FTRNFYVQAVL [CYBA_Y88_R90Q_YF] | 1.31 | 0.435 | 1.15 | 0.81 | 0.993 | 0.57 | 0.494 | 0.474 | 0.654 | 0.563 | 0.795 | 0.483 | 0.742 | 0.837 | 0.421 | 0.78 |
